Target: Leukocyte Function Antigen-1 (LFA-1), on cells (Jurkat T cells, human T cells, PBMC) (human) (UniProt P20701)
Assay: cell-based or functional assay

Leukocyte Function Antigen-1 (LFA-1), on cells (Jurkat T cells, human T cells, PBMC) (human), sequence (P20701 26-1170, chain 1 of 2): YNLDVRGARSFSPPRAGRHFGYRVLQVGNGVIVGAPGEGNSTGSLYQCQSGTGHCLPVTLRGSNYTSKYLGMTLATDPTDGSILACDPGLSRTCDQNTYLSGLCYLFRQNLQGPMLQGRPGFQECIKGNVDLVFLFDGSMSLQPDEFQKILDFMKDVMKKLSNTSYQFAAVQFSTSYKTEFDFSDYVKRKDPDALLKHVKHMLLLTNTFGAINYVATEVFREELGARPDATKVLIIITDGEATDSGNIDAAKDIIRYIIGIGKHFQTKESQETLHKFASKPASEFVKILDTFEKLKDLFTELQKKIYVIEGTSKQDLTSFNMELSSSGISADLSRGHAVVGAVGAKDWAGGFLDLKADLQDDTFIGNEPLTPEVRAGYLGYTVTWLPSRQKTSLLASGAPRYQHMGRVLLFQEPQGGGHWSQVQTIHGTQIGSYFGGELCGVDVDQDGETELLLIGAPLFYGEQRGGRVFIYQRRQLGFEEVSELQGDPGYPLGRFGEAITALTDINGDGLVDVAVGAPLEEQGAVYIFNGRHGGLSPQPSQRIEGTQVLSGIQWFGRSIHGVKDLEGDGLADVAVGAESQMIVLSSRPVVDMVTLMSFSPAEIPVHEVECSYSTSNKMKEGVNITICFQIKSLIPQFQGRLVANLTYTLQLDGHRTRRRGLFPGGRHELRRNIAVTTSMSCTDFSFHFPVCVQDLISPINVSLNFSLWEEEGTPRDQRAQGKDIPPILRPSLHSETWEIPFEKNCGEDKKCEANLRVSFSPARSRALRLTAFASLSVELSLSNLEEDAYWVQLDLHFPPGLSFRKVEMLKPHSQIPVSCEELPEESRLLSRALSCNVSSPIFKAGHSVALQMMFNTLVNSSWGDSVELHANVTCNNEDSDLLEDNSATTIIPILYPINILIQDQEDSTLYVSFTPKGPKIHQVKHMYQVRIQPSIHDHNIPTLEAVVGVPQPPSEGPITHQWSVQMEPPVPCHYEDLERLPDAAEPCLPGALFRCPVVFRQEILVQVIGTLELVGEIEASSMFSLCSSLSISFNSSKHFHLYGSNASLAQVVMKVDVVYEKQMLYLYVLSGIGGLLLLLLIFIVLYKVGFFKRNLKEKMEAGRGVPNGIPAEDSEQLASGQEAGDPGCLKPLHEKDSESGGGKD
Leukocyte Function Antigen-1 (LFA-1), on cells (Jurkat T cells, human T cells, PBMC) (human), sequence (P05107 23-769, chain 2 of 2, further chain): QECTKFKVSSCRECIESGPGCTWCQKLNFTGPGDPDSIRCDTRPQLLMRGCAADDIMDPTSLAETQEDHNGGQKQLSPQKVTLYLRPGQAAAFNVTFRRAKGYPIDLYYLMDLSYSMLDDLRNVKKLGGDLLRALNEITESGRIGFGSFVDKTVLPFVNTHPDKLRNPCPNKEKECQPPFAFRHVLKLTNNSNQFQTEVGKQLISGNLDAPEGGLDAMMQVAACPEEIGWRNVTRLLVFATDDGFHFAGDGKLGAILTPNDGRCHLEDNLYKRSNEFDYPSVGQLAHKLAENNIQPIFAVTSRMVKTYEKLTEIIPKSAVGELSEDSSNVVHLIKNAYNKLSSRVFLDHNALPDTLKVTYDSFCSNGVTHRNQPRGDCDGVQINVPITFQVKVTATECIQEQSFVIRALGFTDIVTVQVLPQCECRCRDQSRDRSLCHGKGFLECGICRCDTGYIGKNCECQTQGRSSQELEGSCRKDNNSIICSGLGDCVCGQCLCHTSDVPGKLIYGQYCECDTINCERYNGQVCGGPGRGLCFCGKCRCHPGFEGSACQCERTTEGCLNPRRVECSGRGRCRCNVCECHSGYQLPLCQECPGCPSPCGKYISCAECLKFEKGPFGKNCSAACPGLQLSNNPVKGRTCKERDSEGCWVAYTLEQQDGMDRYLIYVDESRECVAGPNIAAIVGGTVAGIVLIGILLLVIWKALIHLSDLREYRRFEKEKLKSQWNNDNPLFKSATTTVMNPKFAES

B1: recombinant human ICAM2-FC (Fc fusion, UniProt P13598 25-223, looked up, not shown: a dimerising Fc or GST)
chain: KVFEVHVRPKKLAVEPKGSLEVNCSTTCNQPEVGGLETSLDKILLDEQAQWKHYLVSNISHDTVLQCHFTCSGKQESMNSNVSVYQPPRQVILTLQPTLVAVGKSFTIECRVPTVEPLDSLTLFLFRGNETLHYETFGKAAPAPQEATATFNSTADREDGHRNFSCLAVLDLMSRGGNIFHKHSAPKMLEIYEPVSDSQ
frequency of the perforin negative population, CD56+CD8med cells: 21.5%
granzyme-A negative population, CD56+CD8high cells: 58.3%

B2: recombinant human ICAM3-FC (Fc fusion, UniProt P32942 30-485, looked up, not shown: a dimerising Fc or GST)
chain: QEFLLRVEPQNPVLSAGGSLFVNCSTDCPSSEKIALETSLSKELVASGMGWAAFNLSNVTGNSRILCSVYCNGSQITGSSNITVYRLPERVELAPLPPWQPVGQNFTLRCQVEDGSPRTSLTVVLLRWEEELSRQPAVEEPAEVTATVLASRDDHGAPFSCRTELDMQPQGLGLFVNTSAPRQLRTFVLPVTPPRLVAPRFLEVETSWPVDCTLDGLFPASEAQVYLALGDQMLNATVMNHGDTLTATATATARADQEGAREIVCNVTLGGERREARENLTVFSFLGPIVNLSEPTAHEGSTVTVSCMAGARVQVTLDGVPAAAPGQPAQLQLNATESDDGRSFFCSATLEVDGEFLHRNSSVQLRVLYGPKIDRATCPQHLKWKDKTRHVLQCQARGNPYPELRCLKEGSSREVPVGIPFFVNVTHNGTYQCQASSSRGKYTLVVVMDIEAGSSH
frequency of the perforin negative population, CD56+CD8med cells: 19.8%
granzyme-A negative population, CD56+CD8high cells: 3.07%

Source: US20150241442A1
